Results on 3 sequences are retold here after article PMC4601788.

Some results are limits rather than exact numbers.

For data set [1], the target named is rLiPABP (poly(A)-binding protein) (Leishmania infantum) (UniProt A4IBV3). Put plainly: ELONA.
Data set [2] addresses Flag-LiPABP (Leishmania infantum) (UniProt A4IBV3). Put plainly: pull-down.
In data set [3] the target is Myc-LiPABP (Leishmania infantum) (UniProt A4IBV3). Put plainly: competition.
Data set [4] concerns the target endogenous LiPABP (eLiPABP) (Leishmania infantum) (UniProt A4IBV3). Put plainly: competition.

For orientation: Kd means a measure of binding affinity in units of concentration. As to “GCGGATGAAGACTGGTGTCCAGAGTGAACACAAAGAAATTGAAATACGTAAGCTCCGGGCCCTAAATACGAGCAAC [ApPABP#7]”, in data set [1], the Kd worked out at 6 nM. The sequence also came in with a binding signal (% of total Flag-LiPABP recovered) in data set [2] of over 75.
“GCGGATGAAGACTGGTGTGGACAGTTCTACGAGGATTACGCTGTTACTAAGTGTGGGGGCCCTAAATACGAGCAAC [ApPABP#3]” registered an equilibrium dissociation constant (Kd) in data set [1] of 5.4 nM. Further, the binding signal (% of total Flag-LiPABP recovered) in data set [2] is over 75.
“GTTGCTCGTATTTAGGGCGGCCCCCTCCTCCCTCCCCCACCCGACACTATTCCCCCCCACACCAGTCTTCATCCGC [ApPABP#11]” returned an equilibrium dissociation constant (Kd) in data set [1] of 10.8 nM. In data set [2], this sequence returned a binding signal (% of total Flag-LiPABP recovered) of under 50. Besides, the binding signal (% reduction of poly(A) binding) in data set [3] is 80; in data set [4], 30.
